# Article PMC11564547, “An interaction network of inner centriole proteins organised by POC1A-POC1B heterodimer crosslinks ensures centriolar integrity” (Nature Communications, 2024)
# B1: Centrin2 (natural protein, human, UniProt P41208 1-172, looked up)
# chain: MASNFKKANMASSSQRKRMSPKPELTEEQKQEIREAFDLFDADGTGTIDVKELKVAMRALGFEPKKEEIKKMISEIDKEGTGKMNFGDFLTVMTQKMSEKDTKEEILKAFKLFDDDETGKISFKNLKRVAKELGENLTDEELQEMIDEADRDGDGEVSEQEFLRIMKKTSLY
# notes: Centrin2 (CETN2), human; amplified and cloned into pACEBac1; also called CETN2; CEN2; source: Sf21 insect cells (MultiBac baculovirus), co-expressed with POC5-TEV-2xFLAG, co-purified (anti-FLAG beads, SEC)
# B2: POC5^Δ153-184-TEV-2xFLAG (of the POC5^Δ153-184-Centrin2 complex from insect cells) (natural protein, human, UniProt Q8NA72 1-575, looked up)
# chain: MSSDEEKYSLPVVQNDSSRGSSVSSNLQEEYEELLHYAIVTPNIEPCASQSSHPKGELVPDVRISTIHDILHSQGNNSEVRETAIEVGKGCDFHISSHSKTDESSPVLSPRKPSHPVMDFFSSHLLADSSSPATNSSHTDAHEILVSDFLVSFIDWHRMEMRKEKEKHAAHLKQLCNQINELKELQKTFEISIGRKDEVISSLSHAIGKQKEKIELMRTFFHWRIGHVRARQDVYEGKLADQYYQRTLLKKVWKVWRSVVQKQWKDVVERACQARAEEVCIQISNDYEAKVAMLSGALENAKAEIQRMQHEKEHFEDSMKKAFMRGVCALNLEAMTIFQNRNDAGIDSTNNKKEEYGPGVQGKEHSAHLDPSAPPMPLPVTSPLLPSPPAAVGGASATAVPSAASMTSTRAASASSVHVPVSALGAGSAATAASEEMYVPRVVTSAQQKAGRTITARITGRCDFASKNRISSSLAIMGVSPPMSSVVVEKHHPVTVQTIPQATAAKYPRTIHPESSTSASRSLGTRSAHTQSLTSVHSIKVVD
# notes: made with deletion primers from the POC5-TEV-2xFLAG CEN2 construct; source: insect cells (MultiBac baculovirus), co-expressed with Centrin2, purified (anti-FLAG beads, 3xFLAG peptide elution, SEC); not shown: 2xFLAG (after a TEV site), C-terminal, kept
# B3: POC5-HA-TEV-2xFLAG (wild type POC5 of the POC5-Centrin2 complex from insect cells) (natural protein, human, UniProt Q8NA72 1-575, looked up)
# chain: MSSDEEKYSLPVVQNDSSRGSSVSSNLQEEYEELLHYAIVTPNIEPCASQSSHPKGELVPDVRISTIHDILHSQGNNSEVRETAIEVGKGCDFHISSHSKTDESSPVLSPRKPSHPVMDFFSSHLLADSSSPATNSSHTDAHEILVSDFLVSDENLQKMENVLDLWSSGLKTNIISELSKWRLNFIDWHRMEMRKEKEKHAAHLKQLCNQINELKELQKTFEISIGRKDEVISSLSHAIGKQKEKIELMRTFFHWRIGHVRARQDVYEGKLADQYYQRTLLKKVWKVWRSVVQKQWKDVVERACQARAEEVCIQISNDYEAKVAMLSGALENAKAEIQRMQHEKEHFEDSMKKAFMRGVCALNLEAMTIFQNRNDAGIDSTNNKKEEYGPGVQGKEHSAHLDPSAPPMPLPVTSPLLPSPPAAVGGASATAVPSAASMTSTRAASASSVHVPVSALGAGSAATAASEEMYVPRVVTSAQQKAGRTITARITGRCDFASKNRISSSLAIMGVSPPMSSVVVEKHHPVTVQTIPQATAAKYPRTIHPESSTSASRSLGTRSAHTQSLTSVHSIKVVD
# notes: POC5, human; cDNA from SinoBiological; No TEV cleavage is described; also called POC5-TEV-2xFLAG; full-length POC5; not shown: 2xFLAG (after a TEV site), C-terminal, kept
# Experiments:
# [1] = molecular target: B3; test: mass photometry; purified POC5-Centrin2 complex (co-expressed in insect cells, FLAG affinity and SEC); 1 µl of 400 nM protein in 19 µl SEC buffer (50 mM Tris pH 7.5, 150 mM NaCl, 1 mM MgCl2); Refeyn TwoMP; conditions: both partners purified
# [2] = molecular target: the molecule itself; test: negative stain EM; purified POC5-Centrin2 complexes (co-expressed in insect cells, FLAG affinity and SEC); 3% uranyl acetate; 2D classification and low-resolution 3D reconstruction
# [3] = molecular target: the molecule itself; test: mass photometry; purified POC5-Centrin2 complex (co-expressed in insect cells, FLAG affinity and SEC); 1 µl of 400 nM protein in 19 µl SEC buffer (50 mM Tris pH 7.5, 150 mM NaCl, 1 mM MgCl2); Refeyn TwoMP
binder,measurement,setting,value
B1,stoichiometry N,[1],~6 Centrin2 molecules per POC5 tetramer
B2,stoichiometry N,[2],2
B3,stoichiometry N,[3],4
